Test results: US20120058906A1 (published 2012)
Blank lines part the entries; values can stand above or below the binder they belong to.

How the values were obtained:
[1] = target: T1, rHuman Notch-1/Fc Chimera, CF (R&D Systems Cat#3647-TK) (human, UniProt P46531 19-526); experiment: ECL (MSD Multi-Spot) binding, antigen spotted on plate; Fab 5 nM
T1 construct: Bought Fc chimera; Fc part of the bought chimera not given

[2] = target: T2, Recombinant Human DLL4 (R&D Systems Cat#1506-D4/CF) (human, UniProt Q9NR61 27-524); experiment: as above
T2 construct: Bought recombinant protein; also called delta-like protein 4

[3] = target: T3, rHuman IGF-1 sR, CF (R&D Systems Cat#391-GR) (human, UniProt P08069 31-932); experiment: as above
T3 construct: Bought soluble receptor; also called insulin-like growth factor-1 soluble receptor; IGF-R1

[4] = target: T4, rHuman Erythropoietin R/Fc Chimera, CF (R&D Systems Cat#963-ER) (human, UniProt P19235 25-250); experiment: as above
T4 construct: Bought Fc chimera; also called EPO R/Fc; erythropoietin receptor; Fc part of the bought chimera not given
T4 sequence: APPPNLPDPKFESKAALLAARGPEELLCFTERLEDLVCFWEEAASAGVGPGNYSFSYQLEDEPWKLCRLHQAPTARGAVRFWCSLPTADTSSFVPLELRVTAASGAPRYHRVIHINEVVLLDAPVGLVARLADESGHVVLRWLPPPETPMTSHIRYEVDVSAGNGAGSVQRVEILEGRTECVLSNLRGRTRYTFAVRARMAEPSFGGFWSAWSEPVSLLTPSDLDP

[5] = target: T5, rHuman ErbB2/Fc Chimera, CF (R&D Systems Cat#1129-ER) (human, UniProt P04626 23-652); experiment: as above
T5 construct: Bought Fc chimera; also called human epidermal growth factor 2 receptor; HER2/neu; Fc part of the bought chimera not given

[6] = target: T6, rHuman P-Cadherin/Fc Chimera, CF (R&D Systems Cat#861-PC) (human, UniProt P22223 108-654); experiment: as above
T6 construct: Bought Fc chimera; Fc part of the bought chimera not given

[7] = target: T7, rHuman CD44/Fc Chimera, CF (R&D Systems Cat#3660-CD) (human, UniProt P16070 21-220); experiment: ECL (MSD Multi-Spot) binding assay, antigen spotted on plate; Fab 3.8 nM; blank spot 198
T7 construct: Bought Fc chimera; Fc part of the bought chimera not given

[8] = target: T8, rHuman Notch-1/Fc Chimera, CF (R&D Systems Cat#3647-TK) (human, UniProt P46531 19-526); experiment: as above
T8 construct: Bought Fc chimera; Fc part of the bought chimera not given

[9] = target: T9, rHuman P-Cadherin/Fc Chimera, CF (R&D Systems Cat#861-PC) (human, UniProt P22223 108-654); experiment: as above
T9 construct: Bought Fc chimera; also called CDH3; Fc part of the bought chimera not given

[10] = target: T10, rHuman CD44/Fc Chimera, CF (R&D Systems Cat#3660-CD) (human, UniProt P16070 21-220); experiment: ECL (MSD multi-spot), antigen spotted on plate; Fab 11 nM; blank spot 212
T10 construct: Bought reagent; Fc part of the bought chimera not given

[11] = target: T11, rHuman P-Cadherin/Fc Chimera, CF (R&D Systems Cat#861-PC) (human, UniProt P22223 108-654); experiment: as above
T11 construct: Bought reagent; also called CDH3; Fc part of the bought chimera not given

[12] = target: T12, rHuman IGF-1 sR (IGF-1 sR), CF (R&D Systems Cat#391-GR) (human, UniProt P08069 31-932); experiment: as above
T12 construct: Bought soluble receptor; also called insulin-like growth factor-1 soluble receptor; IGF-R1

[13] = target: T13, rHuman HGF R/c-MET/Fc Chimera, CF (R&D Systems Cat#358-MT/CF) (human, UniProt P08581 25-932); experiment: as above
T13 construct: Bought reagent; also called HGF R/Fc; hepatocyte growth factor receptor; Fc part of the bought chimera not given

[14] = target: T14, rHuman Erythropoietin R/Fc Chimera, CF (R&D Systems Cat#963-ER) (human, UniProt P19235 25-250); experiment: as above
T14 construct: Bought reagent; also called EPO R/Fc; Epo R; Fc part of the bought chimera not given
T14 sequence: T4 sequence

[15] = target: T15, rHuman ErbB2/Fc Chimera, CF (R&D Systems Cat#1129-ER) (human, UniProt P04626 23-652); experiment: as above
T15 construct: Bought reagent; also called HER2/neu; human epidermal growth factor 2 receptor; Fc part of the bought chimera not given

[16] = target: T16, rHuman EGF R/Fc Chimera, CF (R&D Systems Cat#344-ER) (human, UniProt P00533 25-645); experiment: as above
T16 construct: Bought reagent; also called epidermal growth factor receptor; Fc part of the bought chimera not given

[17] = target: T17, Recombinant Human DLL4 (R&D Systems Cat#1506-D4/CF) (human, UniProt Q9NR61 27-524); experiment: as above
T17 construct: Bought reagent; also called delta-like protein 4

[18] = target: T18, rHuman Notch-1/Fc Chimera, CF (R&D Systems Cat#3647-TK) (human, UniProt P46531 19-526); experiment: as above
T18 construct: Bought reagent; Fc part of the bought chimera not given
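Note: blank spot per well as comparator with Hit at signal to blank ratio of 4 or more.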

- ECL signal [1]: 383
- ECL signal [2]: 84900
- ECL signal [3]: 320
- ECL signal [4]: 377
- ECL signal [5]: 315
- ECL signal [6]: 437
B1: Fab VH1-46_IGHD6-6*01_IGHJ1*01_S102A_S103P_S104F_H111Y & L6_IGKJ1*01 (Fab, V domains shown)
VH: QVQLVQSGAEVKKPGASVKVSCKASGYTFTSYYMHWVRQAPGQGLEWMGIINPSGGSTSYAQKFQGRVTMTRDTSTSTVYMELSSLRSEDTAVYYCAREEYAPFSAEYFQYWGQGTLVTVSS
VL: not shown
notes: Fab made in E. coli; The heavy chain also carries the CH1 with Flag and His tags of Plasmid A, and the light chain the kappa constant region of Plasmid C

- ECL signal [7]: 419
- ECL signal [8]: 383
- ECL signal [9]: 281
B2: Fab VH6-1_IGHD3-3*01_IGHJ4*01 & V4-3_IGLJ4*01 (Fab, V domains shown)
VH: QVQLQQSGPGLVKPSQTLSLTCAISGDSVSSNSAAWNWIRQSPSRGLEWLGRTYYRSKWYNDYAVSVKSRITINPDTSKNQFSLQLNSVTPEDTAVYYCAREYYDFWSGYYTDYFDYWGQGTLVTVSS
VL: QPVLTQPTSLSASPGASARLTCTLRSGINLGSYRIFWYQQKPESPPRYLLSYYSDSSKHQGSGVPSRFSGSKDASSNAGILVISGLQSEDEADYYCMIWHSSASFVFGGGTQLIIL
notes: Tested as a Fab made in E. coli; also called IGHV6-1*01

- ECL signal [10]: 296
- ECL signal [11]: 270
- ECL signal [12]: 289
- ECL signal [13]: 268
- ECL signal [14]: 1820
- ECL signal [15]: 216
- ECL signal [16]: 201
- ECL signal [17]: 254
- ECL signal [18]: 404
B3: Fab VH1-46_IGHD3-10*01_IGHJ4*01 & B3_IGKJ1*01 (Fab, V domains shown)
VH: QVQLVQSGAEVKKPGASVKVSCKASGYTFTSYYMHWVRQAPGQGLEWMGIINPSGGSTSYAQKFQGRVTMTRDTSTSTVYMELSSLRSEDTAVYYCAREYYYGSGSYYNDYFDYWGQGTLVTVSS
VL: not shown
notes: also called IGHV1-46*01
